According to patent US20190300576A1:

Key:
SUMO-C-CA (HIV-1) [1] = assay: HPSEC affinity selection, 50*7.8mm BIO-SEC-3 column, peptide quantified by LC-MS in the protein fraction
[2] = target: Trypsin from bovine pancreas (bovine) (UniProt P00760); assay: Trypsin inhibition assay
SUMO-C-CA (HIV-1) [3] = assay: BLI, biotinylated peptide immobilized on streptavidin sensors, SUMO-C-CA in solution
SUMO-C-CA (HIV-1) [4] = assay: BLI, C-terminally biotinylated peptide immobilized
SUMO-C-CA (HIV-1) [5] = assay: BLI, peptide on streptavidin sensors, global fit

Trypsin from bovine pancreas (bovine), sequence (P00760 24-246): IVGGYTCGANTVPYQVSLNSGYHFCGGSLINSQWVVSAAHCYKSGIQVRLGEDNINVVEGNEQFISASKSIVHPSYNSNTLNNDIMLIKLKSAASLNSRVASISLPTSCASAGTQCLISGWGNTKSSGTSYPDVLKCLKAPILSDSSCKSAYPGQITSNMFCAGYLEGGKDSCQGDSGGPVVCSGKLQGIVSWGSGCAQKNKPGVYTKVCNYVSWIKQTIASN

Selection yield (%) (SUMO-C-CA (HIV-1) [1])	Kd [2] [µM]	Kd (SUMO-C-CA (HIV-1) [3]) [µM]	Kd (SUMO-C-CA (HIV-1) [4]) [µM]	Kd (SUMO-C-CA (HIV-1) [5]) [µM]	Substance
0.5	–	–	–	–	CAI (37) (peptide)
–	0.00093	–	–	–	EETI-II-diol (59) (from UniProt P12071 1-28) (peptide)
–	–	2.3	2.3	2.2	peptide 37a (biotinylated CAI)
–	–	5.8	–	5	peptide NYAD (37a-M)
